From PMC11379828

T1: MBP-EFD (Arabidopsis thaliana, UniProt Q9M389 1-323)
T1 sequence: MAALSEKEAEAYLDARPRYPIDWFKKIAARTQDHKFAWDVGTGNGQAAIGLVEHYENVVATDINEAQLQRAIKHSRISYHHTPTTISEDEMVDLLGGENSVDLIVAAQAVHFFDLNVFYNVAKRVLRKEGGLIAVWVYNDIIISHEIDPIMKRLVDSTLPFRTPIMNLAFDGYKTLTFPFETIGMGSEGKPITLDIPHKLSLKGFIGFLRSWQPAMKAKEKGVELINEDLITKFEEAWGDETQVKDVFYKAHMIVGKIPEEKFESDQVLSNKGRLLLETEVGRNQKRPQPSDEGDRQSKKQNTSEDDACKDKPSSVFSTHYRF

T2: MBP-EFD (1-260 aa) (Arabidopsis thaliana, UniProt Q9M389 1-260)
T2 sequence: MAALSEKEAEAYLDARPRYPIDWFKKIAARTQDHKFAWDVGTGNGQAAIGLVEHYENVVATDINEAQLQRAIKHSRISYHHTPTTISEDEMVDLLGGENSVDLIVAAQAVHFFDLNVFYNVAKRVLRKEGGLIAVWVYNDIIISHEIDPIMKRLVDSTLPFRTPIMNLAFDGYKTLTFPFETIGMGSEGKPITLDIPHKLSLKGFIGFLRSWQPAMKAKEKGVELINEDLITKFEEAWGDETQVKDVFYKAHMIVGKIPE

B1: HB21 probe, unmethylated (HB21+1410) (dsDNA)
DNA 1: ATCCTCTGTGACCATTGAAGCCAATCATACGACACCGTTTTTTGGAGATTACGACATCGGATTTGACGGTGAGGCTGACGAG
DNA 2: CTCGTCAGCCTCACCGTCAAATCCGATGTCGTAATCTCCAAAAAACGGTGTCGTATGATTGGCTTCAATGGTCACAGAGGAT
B2: HB21 probe, methylated (HB21+1410) (dsDNA)
DNA 1: ATCCTCTGTGACCATTGAAGCCAATCATACGACACCGTTTTTTGGAGATTACGACATCGGATTTGACGGTGAGGCTGACGAG
DNA 2: CTCGTCAGCCTCACCGTCAAATCCGATGTCGTAATCTCCAAAAAACGGTGTCGTATGATTGGCTTCAATGGTCACAGAGGAT
modifications: 5-methylcytosine, positions not given

Columns and labels:
MBP-EFD = target: T1, MBP-EFD; assay: EMSA
MBP-EFD (1-260 aa) = target: T2, MBP-EFD (1-260 aa); assay: EMSA

Binder | binding result (MBP-EFD) | binding result (MBP-EFD (1-260 aa))
B1 | binds | binds
B2 |  | binds
